Test results as given in patent US20190255141 (published 2019).
Ends that are not written are not given here.

Columns and labels:
[1] = target: T1, human furin (human, UniProt P09958); experiment: other, pH 7.0, 37C
[2] = target: trypsin
[3] = target: T1, human furin; experiment: other, pH 7.0, 37C; remark: listed apart in the source

T1 sequence (P09958 108-715): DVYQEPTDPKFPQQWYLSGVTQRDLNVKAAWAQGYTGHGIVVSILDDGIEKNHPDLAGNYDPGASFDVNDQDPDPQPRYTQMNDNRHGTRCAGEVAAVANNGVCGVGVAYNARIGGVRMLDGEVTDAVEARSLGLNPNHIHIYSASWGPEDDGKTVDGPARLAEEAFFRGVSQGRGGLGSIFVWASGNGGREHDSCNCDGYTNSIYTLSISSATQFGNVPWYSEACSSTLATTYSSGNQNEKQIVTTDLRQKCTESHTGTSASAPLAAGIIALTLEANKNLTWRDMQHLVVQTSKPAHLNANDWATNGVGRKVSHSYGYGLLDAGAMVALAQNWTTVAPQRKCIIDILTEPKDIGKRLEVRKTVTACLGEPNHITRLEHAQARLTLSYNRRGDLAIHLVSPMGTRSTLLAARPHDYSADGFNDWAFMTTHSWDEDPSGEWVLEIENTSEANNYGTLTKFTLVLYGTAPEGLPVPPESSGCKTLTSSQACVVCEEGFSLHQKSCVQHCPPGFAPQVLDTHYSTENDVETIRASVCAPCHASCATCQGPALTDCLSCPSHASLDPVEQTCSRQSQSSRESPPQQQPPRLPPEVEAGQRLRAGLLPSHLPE

Binder | Ki [1] [µM] | Ki [2] [µM] | binding result [3]
KAAAAK (not fully specified) [C16-KAAAAK-C16] | 1.75 |  | 
KAAAK (not fully specified (N-terminus, C-terminus); printed as C16-KAAAK-C16) [C16-KAAAK-C16] | 1.72 | 40.3 | 
Lys-Gly-Lys (not fully specified (N-terminus, C-terminus); printed as C16-KGK-C16) [C16-KGK-C16] |  | 41.6 | 
Lys-Lys (not fully specified (N-terminus, C-terminus); printed as C16-KK-C16) [C16-KK-C16] |  | 84.7 | no binding
KGGGK (not fully specified) [C16-KGGGK-C16] |  | 11.1 | 
KAAK (not fully specified (N-terminus, C-terminus); printed as C16-KAAK-C16) [C16-KAAK-C16] | 0.97 |  | 
Lys-Ala-Lys (not fully specified (N-terminus, C-terminus); printed as C16-KAK-C16) [C16-KAK-C16] | 0.54 | 15.2 | 
